Data as given in publication PMC3322874 (The Journal of Biological Chemistry, 2012).
Positions count from the first letter of the chain named. Names may count otherwise.

B1: R182K-AfUGM (enzyme, Aspergillus fumigatus)
chain: THPDISVDVLVIGAGPTGLGAAKRLNQIDGPSWMIVDSNETPGGLASTDVTPEGFLYDVGGHVIFSHYKYFDDCLDEALPKEDDWYTHQRISYVRCQGQWVPYPFQNNISMLPKEEQVKCIDGMIDAALEARVANTKPKTFDEWIVRMMGTGIADLFMRPYNFKVWAVPTTKMQCAWLGEKVAAPNLKAVTTNVILGKTAGNWGPNATFRFPARGGTGGIWIAVANTLPKEKTRFGEKGKVTKVNANNKTVTLQDGTTIGYKKLVSTMAVDFLAEAMNDQELVGLTKQLFYSSTHVIGVGVRGSRPERIGDKCWLYFPEDNCPFYRATIFSNYSPYNQPEASKKLPTMQLADGSRPQSTEAKEGPYWSIMLEVSESSMKPVNQETILADCIQGLVNTEMLKPTDEIVSTYHRRFDHGYPTPTLEREGALTQILPKLQDKDIWSRGRFGSWRYEVGNQDHSFMLGVEAVDNIVNGAVELTLNYPDFVNGRQNTERRLVDGAQVFAKSKAQ
B2: R327K-AfUGM (enzyme, Aspergillus fumigatus)
chain: B1 chain with K181R, R326K

Biological target: the molecule itself
Assay: crystal structure

Protein | stoichiometry N
B1 | 4
B2 | 4
